In patent US20140120095A1 (Boehringer Ingelheim, published 2014):

Legend:
[1] = biological target: T1, human DLL4 overexpressed on cells (human, UniProt Q9NR61 27-685); assay: FMAT, labelled hNotch1-Fc on CHO-hDLL4, periplasmic extract
T1 construct: full length human DLL4 on CHO or HEK293 cells; also called CHO-hDLL4; CHO-hDII4
Description: (§1) All calculations are based on the FL1_total signal which comprises the average of the fluorescence per well times the number of counts per well.

[2] = biological target: T1, human DLL4 overexpressed on cells; assay: competitive FMAT, hNotch1-Fc on CHO-hDLL4
[3] = biological target: T2, mouse DLL4 overexpressed on cells (mouse, UniProt Q9JI71 27-686); assay: FMAT competition on CHO-mDLL4 cells; blocked ligand Alexa-647 labelled hNotch1-Fc
T2 construct: whole, on cells; also called CHO-mDLL4; CHO-mDII4

recombinant human DLL4 [4] = biological target: T3, recombinant human DLL4 (human, UniProt Q9NR61 25-522); assay: SPR Biacore T100, hDLL4 on chip; heterogeneous binding curve, no 1:1 fit
T3 construct: also called rhDLL4; hDLL4
Experimental: Kinetic analysis to determine the affinity of the DII4-VHH interaction is performed by Surface Plasmon Resonance (SPR) on a Biacore T100 instrument. […] Purified VHHs or Fab fragment are injected for 2 minutes at different concentrations (between 10 and 300 nM) and allowed to dissociate for 20 min at a flow rate of 45 μl/min. Between sample injections, the surfaces are regenerated with 10 mM glycine pH1.5 and 100 mM HCl. HBS-N (Hepes buffer pH7.4) is used as running buffer. If possible, data are evaluated by fitting a 1:1 interaction model (Langmuir binding) onto the binding curves. The affinity constant KD is calculated from resulting association and dissociation rate constants (kₐ) and […].

human DLL1 = biological target: T4, human DLL1 (human, UniProt O00548 18-545, limits assumed); assay: binding ELISA on coated recombinant human DLL1, OD 405 nm
T4 construct: also called hDLL1
T4 sequence (looked up): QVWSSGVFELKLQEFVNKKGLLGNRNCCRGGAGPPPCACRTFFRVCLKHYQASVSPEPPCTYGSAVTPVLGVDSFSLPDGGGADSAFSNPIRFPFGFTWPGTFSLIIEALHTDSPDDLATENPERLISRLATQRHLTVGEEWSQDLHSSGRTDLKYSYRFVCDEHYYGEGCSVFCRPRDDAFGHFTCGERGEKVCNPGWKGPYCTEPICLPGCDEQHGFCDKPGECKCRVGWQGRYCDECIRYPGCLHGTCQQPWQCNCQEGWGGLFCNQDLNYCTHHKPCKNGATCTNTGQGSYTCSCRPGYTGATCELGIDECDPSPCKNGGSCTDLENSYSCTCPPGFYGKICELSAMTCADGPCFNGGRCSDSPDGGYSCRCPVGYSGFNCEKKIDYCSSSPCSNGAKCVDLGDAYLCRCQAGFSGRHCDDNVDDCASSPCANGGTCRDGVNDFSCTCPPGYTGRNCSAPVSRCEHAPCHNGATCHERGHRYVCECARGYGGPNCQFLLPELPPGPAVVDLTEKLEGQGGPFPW
How it was run: (§2)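 Plates coated overnight at 4° C with 1 μg/mL ligand, blocked with 1% casein in PBS. VHH dilution series applied; bound VHH detected via mouse anti-myc then anti-mouse-AP conjugate.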

[5] = biological target: T1, human DLL4 overexpressed on cells; assay: FACS titration on HEK293-hDLL4 cells, MCF
Experimental: In order to determine the cynomologus cross-reactivity of the VHHs, a FACS binding experiment is performed. Cynomolgus DII4 expressing HEK293 cells (transient or stable transfection) are used for a titration binding experiment of the VHHs. After a 30 minutes incubation on ice, all samples are washed and detection is performed by applying anti-c-myc˜Alexa647 (Santa Cruz Biotechnology, Santa Cruz, Calif., USA). Human and mouse DII4 overexpressing HEK293 cells are taken as reference. The mean MCF value is determined on the FACS Array and used for calculation of the EC₅₀ value (see FIG. 9 A-E).

recombinant human DLL4 [6] = biological target: T3, recombinant human DLL4; assay: cell-based or functional assay
[7] = biological target: T5, cynomolgus DLL4 overexpressed on cells (cynomolgus, UniProt Q9NR61 27-685 (human entry)); assay: FACS titration on HEK293-cDLL4 cells, MCF
T5 construct: also called cyno DII4; cDLL4
T5 chain: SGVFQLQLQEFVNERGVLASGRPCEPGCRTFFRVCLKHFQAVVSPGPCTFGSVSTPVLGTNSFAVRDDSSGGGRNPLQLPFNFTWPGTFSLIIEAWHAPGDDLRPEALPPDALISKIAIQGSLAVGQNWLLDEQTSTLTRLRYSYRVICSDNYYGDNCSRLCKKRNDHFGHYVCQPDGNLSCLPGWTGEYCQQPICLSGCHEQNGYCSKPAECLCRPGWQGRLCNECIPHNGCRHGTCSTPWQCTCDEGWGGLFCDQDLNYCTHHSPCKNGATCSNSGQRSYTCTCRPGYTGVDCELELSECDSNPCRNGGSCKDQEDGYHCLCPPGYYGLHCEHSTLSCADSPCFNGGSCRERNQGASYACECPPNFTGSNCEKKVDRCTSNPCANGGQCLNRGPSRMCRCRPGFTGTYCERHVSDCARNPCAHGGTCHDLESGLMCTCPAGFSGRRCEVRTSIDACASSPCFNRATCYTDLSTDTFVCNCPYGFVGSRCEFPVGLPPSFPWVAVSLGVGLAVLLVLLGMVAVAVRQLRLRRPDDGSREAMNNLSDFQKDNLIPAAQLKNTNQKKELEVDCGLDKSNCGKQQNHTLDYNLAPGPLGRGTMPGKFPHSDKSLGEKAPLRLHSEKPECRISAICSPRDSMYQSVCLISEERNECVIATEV
How it was run: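 HEK293 cells overexpressing DLL4 (transient or stable) were incubated with VHH titrations for 30 min on ice. After washing, binding was detected with anti-c-myc-Alexa647 by flow cytometry, and the mean MCF was used to calculate EC50.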

recombinant mouse DLL4 = biological target: T6, recombinant mouse DLL4 (mouse, UniProt Q9JI71 27-532); assay: binding ELISA on coated recombinant mouse DLL4, OD 405 nm
T6 construct: extracellular domain; also called rmDLL4; mDLL4
Experimental: (§3) In order to determine cross-reactivity to mouse DII4 a binding ELISA is performed. […] Wells are blocked with a casein solution (1% in PBS). VHHs are applied as dilution series and binding is detected using a mouse anti-myc (Roche) and an anti-mouse-AP conjugate (Sigma, St Louis, Mo., USA) (FIG. 7 A-H). As reference, binding to human DII4 is measured.

human Jagged-1 = biological target: T7, human Jagged-1 (human, UniProt P78504 34-1067, limits assumed); assay: binding ELISA on coated recombinant human Jagged-1, OD 405 nm
T7 construct: also called hJagged-1; hJAG1
How it was run: as §2

recombinant human DLL4 [8] = biological target: T3, recombinant human DLL4; assay: Biacore off-rate, periplasmic extract
recombinant human DLL4 [9] = biological target: T3, recombinant human DLL4; assay: competition ELISA, biot-hDLL4 to coated hNotch1-Fc
Description: Residual binding of biotinylated human DII4 is detected using horseradish peroxidase (HRP) conjugated extravidin (Sigma, St. Louis, Mo., USA) (FIG. 3 A-C). Human DII4 is biotinylated as described above.

recombinant human DLL4 [10] = biological target: T3, recombinant human DLL4; assay: binding ELISA, coated rhDLL4
Experimental: as §3

[11] = biological target: T2, mouse DLL4 overexpressed on cells; assay: FMAT, labelled hNotch1-Fc on CHO-mDLL4, periplasmic extract
Description: as §1
Target sequence in this assay (Q9JI71 27-686): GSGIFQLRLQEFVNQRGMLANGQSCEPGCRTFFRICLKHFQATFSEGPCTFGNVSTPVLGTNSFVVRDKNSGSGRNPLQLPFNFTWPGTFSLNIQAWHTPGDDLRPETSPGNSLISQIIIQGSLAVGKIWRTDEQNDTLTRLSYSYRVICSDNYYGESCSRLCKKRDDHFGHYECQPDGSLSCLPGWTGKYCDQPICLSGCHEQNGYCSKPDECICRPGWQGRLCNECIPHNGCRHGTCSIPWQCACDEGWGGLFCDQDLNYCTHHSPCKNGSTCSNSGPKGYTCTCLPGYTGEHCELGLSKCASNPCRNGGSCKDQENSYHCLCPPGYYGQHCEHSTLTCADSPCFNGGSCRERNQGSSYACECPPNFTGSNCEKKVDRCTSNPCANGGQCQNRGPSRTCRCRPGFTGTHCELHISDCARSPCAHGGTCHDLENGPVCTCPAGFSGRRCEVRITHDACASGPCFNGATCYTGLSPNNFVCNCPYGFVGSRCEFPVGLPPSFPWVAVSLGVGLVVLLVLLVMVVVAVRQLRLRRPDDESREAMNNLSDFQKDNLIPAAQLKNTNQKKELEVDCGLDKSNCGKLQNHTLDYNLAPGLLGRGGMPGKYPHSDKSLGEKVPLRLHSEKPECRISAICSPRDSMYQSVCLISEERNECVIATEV

[12] = biological target: T1, human DLL4 overexpressed on cells; assay: cell-based or functional assay
[13] = biological target: T8, mouse DLL4 expressed on CHO cells (mouse, UniProt Q9JI71 27-686); assay: FMAT competition on CHO-mDLL4 cells; unlabelled rhNotch1-Fc competes with Alexa-647 labelled hNotch1-Fc
T8 construct: whole, on cells; also called mDLL4; CHO-mDLL4

[14] = biological target: T9, human DLL4 expressed on cells (CHO-hDLL4; HEK293-hDLL4) (human, UniProt Q9NR61 27-685); assay: FMAT competition on CHO-hDLL4 cells; unlabelled rhNotch1-Fc competes with Alexa-647 labelled hNotch1-Fc
T9 construct: full length human DLL4 overexpressed on CHO cells (FMAT, FACS) or HEK293 cells (reporter assay)

T6 sequence (Q9JI71 27-532): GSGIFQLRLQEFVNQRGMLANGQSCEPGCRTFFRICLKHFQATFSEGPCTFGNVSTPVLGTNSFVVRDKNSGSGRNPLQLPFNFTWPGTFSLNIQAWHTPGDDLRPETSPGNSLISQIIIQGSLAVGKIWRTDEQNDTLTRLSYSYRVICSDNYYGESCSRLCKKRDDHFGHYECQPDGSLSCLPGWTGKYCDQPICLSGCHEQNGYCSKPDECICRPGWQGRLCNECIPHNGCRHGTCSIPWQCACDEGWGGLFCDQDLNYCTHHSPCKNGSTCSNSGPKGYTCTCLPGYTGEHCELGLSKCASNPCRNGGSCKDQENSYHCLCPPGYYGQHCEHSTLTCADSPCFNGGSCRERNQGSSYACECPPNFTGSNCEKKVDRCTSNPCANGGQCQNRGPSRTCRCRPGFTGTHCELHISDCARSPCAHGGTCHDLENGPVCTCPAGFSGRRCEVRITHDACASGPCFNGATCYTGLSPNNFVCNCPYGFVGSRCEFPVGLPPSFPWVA

B1: DLLBII104G01 (VHH)
VHH: EVQLVESGGGLVQAGGSLRLSCAASGFTFDDYAIGWFRQAPGKEREGVSCISSSDGSTYYADSVKGRFTISSDNAKNTVYLQMNSLKPEDTAVYYCATAWCDSSWYRSFVGYWGQGTQVTVSS
notes: also called 104G1
- % inh [1]: 94%
- IC50 [2]: 2.5 nM
- IC50 (read off the curve) [3]: ~60 nM
- Kd (recombinant human DLL4 [4]): 4 to 24 nM
- koff (recombinant human DLL4 [4]): 0.0006 to 0.003 s⁻¹
- kon (recombinant human DLL4 [4]): 120000 to 150000 M⁻¹ s⁻¹
- binding result (human DLL1): no binding (tested: 5e-7 M)
- EC50 (read off the curve) [5]: ~4 nM
- IC50 (nM) (experiment 1), DLL4 proliferation assay (HUVEC) (recombinant human DLL4 [6]): 103 nM
- IC50 (nM) (experiment 2), DLL4 proliferation assay (HUVEC) (recombinant human DLL4 [6]): 32 nM
- EC50 (read off the curve) [7]: ~5 nM
- binding result (recombinant mouse DLL4): no binding (tested: 5e-7 M)
- binding result (human Jagged-1): no binding (tested: 5e-7 M)
- koff (recombinant human DLL4 [8]): 0.0012 s⁻¹
- IC50 (recombinant human DLL4 [9]): 1.1 nM
- EC50 (recombinant human DLL4 [10]): 8.4 nM
- % inh [11]: 86%
- IC50, DLL4/Notch1 reporter assay [12]: 964 nM

B2: human Notch1/Fc chimera (R&D Systems) (Fc fusion, UniProt P46531 19-526, looked up, not shown: a dimerising Fc or GST)
chain: ARGPRCSQPGETCLNGGKCEAANGTEACVCGGAFVGPRCQDPNPCLSTPCKNAGTCHVVDRRGVADYACSCALGFSGPLCLTPLDNACLTNPCRNGGTCDLLTLTEYKCRCPPGWSGKSCQQADPCASNPCANGGQCLPFEASYICHCPPSFHGPTCRQDVNECGQKPGLCRHGGTCHNEVGSYRCVCRATHTGPNCERPYVPCSPSPCQNGGTCRPTGDVTHECACLPGFTGQNCEENIDDCPGNNCKNGGACVDGVNTYNCRCPPEWTGQYCTEDVDECQLMPNACQNGGTCHNTHGGYNCVCVNGWTGEDCSENIDDCASAACFHGATCHDRVASFYCECPHGRTGLLCHLNDACISNPCNEGSNCDTNPVNGKAICTCPSGYTGPACSQDVDECSLGANPCEHAGKCINTLGSFECQCLQGYTGPRCEIDVNECVSNPCQNDATCLDQIGEFQCICMPGYEGVHCEVNTDECASSPCLHNGRCLDKINEFQCECPTGFTGHLCQ
modifications: Alexa-647 labelled in the FMAT assay
notes: also called hNotch1-Fc; rhNotch1/Fc
- IC50 (read off the curve) [13]: ~2 nM
- IC50 (read off the curve) [14]: ~4 nM
